Series [1] relates to sMICA shedding by Hela and A375 cells. In words: Shedding of sMICA by tumor cell lines, ELISA for sMICA. The series is classed as cell-based. The note with it: pharmacological inhibitors; U266, Hela, A375, HCT116 and Lovo cells; concentration-dependent; ELISA. (ELISA stands for enzyme-linked immunosorbent assay.)
In series [2] the test system is NKG2D- CD4+ T cells. In words: CD4 T cell proliferation (CFSE dilution, [3H]thymidine incorporation). The series is classed as cell-based. The note with it: anti-CD3 activated CD4 T cell cultures. The protocol: (§1) For analysis of CD4^+ T cell proliferation in conjunction with NKG2D expression, 1×10^7 freshly isolated pure CD4^+ T cells/ml PBS were labeled with an equal volume of 2 μM CFSE (Molecular Probes) for 8 min at room temperature. CFSE was quenched with an equal volume of fetal calf serum for one min followed by three washes with AIM-V medium. CFSE labeled cells were then plated, stimulated and phenotypically analysed as described above. Additional ligands tested in this experimental setting included any of either C1R-MICB, ULBP-1, -2, -3, 4, or -5 transfectants, recombinant soluble MICB, or 5% soluble MIC containing serum from a MIC+ tumor patient and MIC− control serum. To test ligand specificity, ligand containing cultures were treated with either 10 μg/ml 6D4 (anti-MICA/B), 10 μg/ml 3F1 (anti-ULBP-1), or appropriately diluted isotype control immunoglobulins. In some experiments, ligand was replaced by solid-phase anti-NKG2D (1D11) at the concentrations ranging from 5-50 ng/ml. In some experiments, ligand/solid-phase mAb were added on day 1, 2 or 3 after the initiation of culture.
To assess inhibition of CD4^+ T cell proliferation by standard [^3H]thymidine incorporation experiments, freshly isolated pure CD4^+ T cells were plated at 1×10^5 cells/well in a 96 well flat bottom plate containing titrated cross-linked anti-CD3 (see above) or isotype control Ig with or without titrated recombinant soluble MIC. After 72 hrs at 37° C., plates were pulsed with 3 μCi of [^3H]thymidine (Perkin Elmer) for 12 hrs. Plates were harvested and samples analysed by liquid scintillation using Uni-Filter GF/C plates and a TopCount Counter (both from Packard). Counts from triplicates were averaged.
On the technique in general: Incorporation of labelled thymidine or its analogues reports DNA synthesis.

Series [3] has as its system NKG2D+ CD4+ T cells. The series can be described thus: NKG2D expression and expansion of activated CD4 T cells. The class given is cell-based. To be noted: anti-CD3 activated CD4 T cell cultures. The protocol:
For the analysis of NKG2D expression in activated CD4 T cells, freshly isolated pure CD4^+ T cells were plated at 0.3×10^6/2 ml AIM-V medium (Gibco)/well in 24 well plates for various periods of time with or without the presence of mitogenic stimuli and/or the presence of NKG2D ligands. Mitogenic stimuli included either cross-linked anti-CD3 (plates were first coated with AffiniPure F(ab′)2 fragment goat anti-mouse IgG1, Fcγ fragment specific (Jackson ImmunoResearch Laboratories, Inc.) at 10 μg/ml in PBS over night at 4° C. followed by a 4 hr room temperature incubation with anti-CD3 (OKT3, Orthoclone, Ortho Biotech Products, L.P.) at 50 ng/ml (if not indicated otherwise), PHA (5 μg/ml), or PMA/Ionomycin. Ligand additions consisted of either irradiated CLR-MICA and control transfectants at a T cell:transfectant ratio of 5:1, or recombinant soluble MICA at 25 ng/ml if not indicated otherwise. Cells were harvested at various time points after the initiation of culture and tested for NKG2D, CD4 and CD3 coexpression using directly conjugated mAbs for standard three color flow cytometry.
as §1

Series [4] concerns the target T1, MICA tetramer (recombinant MICA*001, residues 1-276, produced in transfected 293T cells, conjugated with … (human, UniProt Q29983 24-299, highly glycosylated (293T cells); conjugated with PE-streptavidin).
T1 construct: Tags from the Invitrogen expression system are not described; also called MICA tetramers; MICA ligand tetramers
T1 sequence: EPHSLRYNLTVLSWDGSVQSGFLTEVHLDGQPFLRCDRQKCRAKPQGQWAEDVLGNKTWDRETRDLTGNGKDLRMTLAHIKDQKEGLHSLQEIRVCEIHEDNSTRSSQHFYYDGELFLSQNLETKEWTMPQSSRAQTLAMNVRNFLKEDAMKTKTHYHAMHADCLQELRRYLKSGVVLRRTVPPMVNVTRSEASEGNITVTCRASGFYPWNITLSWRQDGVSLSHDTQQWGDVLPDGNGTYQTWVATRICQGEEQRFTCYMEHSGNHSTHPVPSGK
The series can be described thus: flow cytometry, PE-streptavidin tetramers on NKL cells. In general terms: Flow cytometry measures light scatter and fluorescence of single cells or particles in a stream.

The target in series [5] is T2, recombinant soluble MICA (rsMICA), unglycosylated, produced in bacteria; ectodomain-only MICA.
T2 chain: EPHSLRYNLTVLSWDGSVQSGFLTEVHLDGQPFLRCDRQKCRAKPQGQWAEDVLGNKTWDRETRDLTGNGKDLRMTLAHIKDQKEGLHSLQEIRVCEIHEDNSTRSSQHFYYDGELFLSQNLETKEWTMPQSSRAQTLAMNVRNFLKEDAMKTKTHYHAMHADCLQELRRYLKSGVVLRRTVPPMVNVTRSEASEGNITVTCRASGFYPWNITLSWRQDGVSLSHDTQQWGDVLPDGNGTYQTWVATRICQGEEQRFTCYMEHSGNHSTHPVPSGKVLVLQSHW

Series [6] concerns the molecule itself. The series can be described thus: size exclusion chromatography (self-association).
The target in series [7] is T3, MICA (Homo sapiens, UniProt Q29983).
T3 sequence (Q29983 24-299): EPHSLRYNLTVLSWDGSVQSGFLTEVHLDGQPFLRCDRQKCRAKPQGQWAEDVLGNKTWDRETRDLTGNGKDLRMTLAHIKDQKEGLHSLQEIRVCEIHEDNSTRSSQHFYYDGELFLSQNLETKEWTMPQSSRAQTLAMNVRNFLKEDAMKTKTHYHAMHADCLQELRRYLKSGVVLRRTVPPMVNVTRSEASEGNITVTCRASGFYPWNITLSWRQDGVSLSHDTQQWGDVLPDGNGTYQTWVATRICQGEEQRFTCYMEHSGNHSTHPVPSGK
In words: ERP5 activity assay, disulfide reduction (non-reducing SDS-PAGE). The series is classed as biochemical. To be noted: ectodomain MICA substrate, room temperature, 1 h or 3 h, no reducing agent.

In series [8] the target is T4, MICA (Homo sapiens, UniProt Q29983).
T4 sequence (Q29983 210-297): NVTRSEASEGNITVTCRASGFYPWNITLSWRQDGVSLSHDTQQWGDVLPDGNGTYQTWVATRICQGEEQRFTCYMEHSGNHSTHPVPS
The series is described as above. The series is classed as biochemical. The note with it: isolated α3 domain (residues 187-274).

“Also recorded” adds a separate entry of the source. Peptide text beside a SMILES is read from it.

Regarding `CC[C@H](C)[C@H](N)C1=N[C@H](C(=O)N[C@@H](CC(C)C)C(=O)N[C@H](CCC(=O)O)C(=O)N[C@H](C(=O)N[C@H]2CCCCNC(=O)[C@H](CC(N)=O)NC(=O)[C@@H](CC(=O)O)NC(=O)[C@H](Cc3cnc[nH]3)NC(=O)[C@@H](Cc3ccccc3)NC(=O)[C@H]([C@@H](C)CC)NC(=O)[C@@H](CCCN)NC2=O)[C@@H](C)CC)CS1` [bacitracin] (HELM PEPTIDE1{[CC[C@H](C)[C@H](N)C1=N[C@H](C(=O)[*:2])CS1].L.[dE].I.K.[NCCC[C@@H](N[*:1])C(=O)[*:2]].I.[dF].H.[dD].N}$PEPTIDE1,PEPTIDE1,5:R3-11:R2$$$V2.0), in series [1], the “shedding of sMICA” value is “markedly reduced; also recorded: Inhibition of sMICA shedding; also recorded: reduce shedding of sMICA”.

`O=C(O)c1cc(SSc2ccc([N+](=O)[O-])c(C(=O)O)c2)ccc1[N+](=O)[O-]` [DTNB, 5,5-dithiobis-(2-nitrobenzoic acid)]: the “shedding of sMICA” value in series [1] is listed as “markedly reduced; also recorded: Inhibition of sMICA shedding; also recorded: reduce shedding of sMICA”.

B1: soluble MICB: recombinant soluble MICB, NKG2D ligand (protein)
chain: EPHSLRYNLMVLSQDGSVQSGFLAEGHLDGQPFLRYDRQKRRAKPQGQWAEDVLGAETWDTETEDLTENGQDLRRTLTHIKDQKGGLHSLQEIRVCEIHEDSSTRGSRHFYYNGELFLSQNLETQESTVPQSSRAQTLAMNVTNFWKEDAMKTKTHYRAMQADCLQKLQRYLKSGVAIRRTVPPMVNVTCSEVSEGNITVTCRASSFYPRNITLTWRQDGVSLSHNTQQWGDVLPDGNGTYQTWVATRIRQGEEQRFTCYMEHSGNHGTHPVPSGK
Consider B1, for which, in series [2], the “proliferation of NKG2D- CD4+ T cells” value was “Growth inhibition”.

B2: soluble MIC: recombinant soluble MIC ligand of NKG2D (protein)
chain: EPHSLRYNLTVLSWDGSVQSGFLTEVHLDGQPFLRCDRQKCRAKPQGQWAEDVLGNKTWDRETRDLTGNGKDLRMTLAHIKDQKEGLHSLQEIRVCEIHEDNSTRSSQHFYYDGELFLSQNLETKEWTMPQSSRAQTLAMNVRNFLKEDAMKTKTHYHAMHADCLQELRRYLKSGVVLRRTVPPMVNVTRSEASEGNITVTCRASGFYPWNITLSWRQDGVSLSHDTQQWGDVLPDGNGTYQTWVATRICQGEEQRFTCYMEHSGNHSTHPVPSGK
As to B2, the “proliferation of NKG2D- CD4+ T cells” value in series [2] was “dramatically inhibited”. Besides, the “expansion / proliferation of NKG2D+ CD4+ T cells” value in series [3] is on record as “enhanced”.

B3: NKG2D (on NKL NK cells and on CD4+ T cells) (receptor, human, UniProt P26718 1-216, looked up)
chain: MGWIRGRRSRHSWEMSEFHNYNLDLKKSDFSTRWQKQRCPVVKSKCRENASPFFFCCFIAVAMGIRFIIMVTIWSAVFLNSLFNQEVQIPLTESYCGPCPKNWICYKNNCYQFFDESKNWYESQASCMSQNASLLKVYSKEDQDLLKLVKSYHWMGLVHIPTNGSWQWEDGSILSPNLLTIIEMQKGDCALYASSFKGYIENCSTPNTYICMQRTV
notes: whole, on cells; also called NKG2D receptor
For B3, the binding result in series [4] is reported as “binds”.

B4: ERP5 fragment 1-118 (N-terminal thioredoxin-like domain), bacterially produced, N-terminal hexahistidine (enzyme, UniProt Q15084 20-137, looked up)
chain: LYSSSDDVIELTPSNFNREVIQSDSLWLVEFYAPWCGHCQRLTPEWKKAATALKDVVKVGAVDADKHHSLGGQYGVQGFPTIKIFGSNKNRPEDYQGGRTGEAIVDAALSALRQLVKD
notes: Numbers count on the mature protein; also called N-terminal ERP5 polypeptide fragment; not shown: N-terminal hexahistidine tract
On to B4, for which the “disulfide bond reduction of MICA (non-reducing SDS-PAGE)” value in series [5] is recorded as “only the N-terminal domain displayed functional activity”. Besides, the binding result in series [6] is reported as “no binding”.

B5: ERP5 fragment 1-118: N-terminal thioredoxin-like domain fragment of ERP5, residues 1-118 (protein)
chain: LYSSSDDVIELTPSNFNREVIQSDSLWLVEFYAPWCGHCQRLTPEWKKAATALKDVVKVGAVDADKHHSLGGQYGVQGFPTIKIFGSNKNRPEDYQGGRTGEAIVDAALSALRQLVKD
modifications: left off: small tags and cut ends
Consider B5, for which the “reduction of MICA disulfide bonds” value in series [7] is recorded as “partially reduced”.

B6: C36S: C36S active site mutant of ERP5 fragment 1-118 (protein)
chain: LYSSSDDVIELTPSNFNREVIQSDSLWLVEFYAPWSGHCQRLTPEWKKAATALKDVVKVGAVDADKHHSLGGQYGVQGFPTIKIFGSNKNRPEDYQGGRTGEAIVDAALSALRQLVKD
modifications: left off: small tags and cut ends
As for B6, in series [7], the “reduction of MICA disulfide bonds” value is on record as “no activity”.

B7: C39S: C39S active site mutant of ERP5 fragment 1-118 (protein)
chain: LYSSSDDVIELTPSNFNREVIQSDSLWLVEFYAPWCGHSQRLTPEWKKAATALKDVVKVGAVDADKHHSLGGQYGVQGFPTIKIFGSNKNRPEDYQGGRTGEAIVDAALSALRQLVKD
modifications: left off: small tags and cut ends
Turning to B7, the “reduction of MICA disulfide bonds” value was “formed a trapped disulfide-linked intermediate” in series [7] and “disulfide-linked heterodimers” in series [7] (listed as C39S mutant of ERP5 fragment 1-118). The “reduction of the MICA α3 domain disulfide bond” value in series [8] (listed as ERP5 1-118 C39S mutant polypeptide) was “reduces the α3 domain disulfide bond of MICA”; in series [8] (listed as ERP5 1-118 polypeptide fragment with the C39S mutation), “unresolved mixed disulfide heterodimer”.

B8: ERP5 fragment 1-118 C36S mutant (protein)
chain: LYSSSDDVIELTPSNFNREVIQSDSLWLVEFYAPWSGHCQRLTPEWKKAATALKDVVKVGAVDADKHHSLGGQYGVQGFPTIKIFGSNKNRPEDYQGGRTGEAIVDAALSALRQLVKD
With B8, in series [5], the “disulfide bond reduction of MICA (non-reducing SDS-PAGE)” value is “C36S showed no activity on MICA substrate”.

B9: ERP5 fragment 135-421, bacterially produced, N-terminal hexahistidine (enzyme, UniProt Q15084 154-440, looked up)
chain: SDSSSKKDVIELTDDSFDKNVLDSEDVWMVEFYAPWCGHCKNLEPEWAAAASEVKEQTKGKVKLAAVDATVNQVLASRYGIRGFPTIKIFQKGESPVDYDGGRTRSDIVSRALDLFSDNAPPPELLEIINEDIAKRTCEEHQLCVVAVLPHILDTGAAGRNSYLEVLLKLADKYKKKMWGWLWTEAGAQSELETALGIGGFGYPAMAAINARKMKFALLKGSFSEQGINEFLRELSFGRGSTAPVGGGAFPTIVEREPWDGRDGELPVEDDIDLSDVELDDLGKDEL
notes: range 135-421; Numbers count on the mature protein; also called ERP5 135-421; not shown: N-terminal hexahistidine tract
For B9, in series [5], the “disulfide bond reduction of MICA (non-reducing SDS-PAGE)” value is listed as “only the N-terminal domain displayed functional activity”. For the same molecule, the binding result in series [6] is “no binding”.
